How the values were obtained:
[1] = substrate: C/C=C/C(=O)C1=C(OC)OC(C)(/C=C/C=C/C(C)O)C1=O; experiment: Activity of mouse DNA polymerase iota using dTTP substrate at 10 uM by Lineweaver-Burke plot
[2] = substrate: C/C=C/C(=O)C1=C(OC)OC(C)(/C=C/C=C/C(C)O)C1=O; experiment: Activity of mouse DNA polymerase iota using poly(dA/oligo(dT) substrate at 5 uM by Lineweaver-Burke plot
[3] = substrate: C/C=C/C(=O)C1=C(OC)OC(C)(/C=C/C=C/C(C)O)C1=O; experiment: Activity of mouse DNA polymerase iota using dTTP substrate at 15 uM by Lineweaver-Burke plot
[4] = substrate: C/C=C/C(=O)C1=C(OC)OC(C)(/C=C/C=C/C(C)O)C1=O; experiment: Activity of mouse DNA polymerase iota using poly(dA/oligo(dT) substrate at 10 uM by Lineweaver-Burke plot
[5] = substrate: C/C=C/C(=O)C1=C(OC)OC(C)(/C=C/C=C/C(C)O)C1=O; experiment: Activity of mouse DNA polymerase iota using dTTP substrate at 5 uM by Lineweaver-Burke plot
[6] = substrate: C/C=C/C(=O)C1=C(OC)OC(C)(/C=C/C=C/C(C)O)C1=O; experiment: Activity of mouse DNA polymerase iota using poly(dA/oligo(dT) substrate at 15 uM by Lineweaver-Burke plot

B1: DNA polymerase iota (Mus musculus), Q6R3M4 (protein)
chain: MEPLHAGAAGSSRAVCSQGPPTQISSSRVIVHVDLDCFYAQVEMISNPELKDRPLGVQQKYLVVTCNYEARKLGVRKLMNVRDAKEKCPQLVLVNGEDLSRYREMSYKVTELLEEFSPAVERLGFDENFVDLTEMVEKRLQQLPSEEVPSVTVFGHVYNNQSVNLHNIMHRRLVVGSQIAAEMREAMYNQLGLTGCAGVAPNKLLAKLVSGVFKPNQQTVLLPESCQHLIHSLNHIKEIPGIGYKTAKRLEVLGINSVHDLQTFPIKTLEKELGIAIAQRIQQLSFGEDKSPVTPSGPPQSFSEEDTFKKCSSEVEAKAKIEELLSSLLTRVCQDGRKPHTVRLVIRRYSDKHCNRESRQCPIPSHVIQKLGTGNHDSMPPLIDILMKLFRNMVNVKMPFHLTLMSVCFCNLKALSSAKKGPMDCYLTSLSTPAYTDKRAFKVKDTHTEDSHKEKEANWDCLPSRRIESTGTGESPLDATCFPKEKDTSDLPLQALPEGVDQEVFKQLPADIQEEILYGKSRENLKGKGSLSCPLHASRGVLSFFSTKQMQASRLSPRDTALPSKRVSAASPCEPGTSGLSPGSTSHPSCGKDCSYYIDSQLKDEQTSQGPTESQGCQFSSTNPAVSGFHSFPNLQTEQLFSTHRTVDSHKQTATASHQGLESHQGLESRELDSAEEKLPFPPDIDPQVFYELPEEVQKELMAEWERAGAARPSAHR
Vmax [1]: 27.6 pmol/h | Vmax [2]: 31.1 pmol/h | Vmax [3]: 22.5 pmol/h | Vmax [4]: 20 pmol/h | Vmax [5]: 35.7 pmol/h | Vmax [6]: 14.8 pmol/h

Reference: ChEMBL document CHEMBL1152764, “Penicilliols A and B, novel inhibitors specific to mammalian Y-family DNA polymerases” (Bioorg Med Chem, 2009)
